Experimental data as given in paper PMC10359924, “Identification and characterisation of anti-IL-13 inhibitory single domain antibodies provides new insights into receptor selectivity and attractive opportunities for drug discovery” (Frontiers in Immunology, 2023).
Positions count from the first letter of the chain named.

B1: VHH227 (VHH)
VHH: EVQLVESGGNLVQPGGSLRLSCAASGFTFSKYAMNWVRQAPGKGLEWVSAINSFAGSTSYADSVKGRFTISRDNAKNTLYLQMNSLKPEDTAVYYCKYRGYYGQGTQVTVSS
notes: From a naive llama VHH phage library (UCB Biopharma); cloned into pET21a(+); not shown: His6, N-terminal, kept
B2: VHH281 (VHH)
VHH: EVQLVESGGGLVQPGGSLRLSCAASGFTFGSYDMSWVRQAPGKGPEWVSYIDSGGRTTYYADSVKGRFTISRDNARNTVYLQMNSLKPEDTAVYYCAREAHGSGWSAANYYGMDYWGEGTQVTVSS
notes: as for B1
B3: VHH238 (VHH)
VHH: EVQLVESGGGLVQPGGSLRLSCAASGFTISNHDMHWVRQAPGKGLEWVSSINPGGTYTEYRDSVKGRFTISRDNAKNTLYLQMNDLKPQDTAVYYCNAWGKGVEYDYWGQGTQVTVSS
notes: as for B1
B4: VHH229 (VHH)
VHH: EVQLVESGGGLVQPGGSLRLSCAASGFTFRRYDMSWVRQVPGKGLEWVSDINSGGDSTNYADSVKGRFTISRDNNKNVLYLQMNSLKPEDTAVYYCNADTYVPKDGGGWSPEYDIWGQGTQVTVSS
notes: as for B1
B5: VHH251 (VHH)
VHH: EVQLVESGGGLVQPGGSLRLSCQASGFAFSSSTMYWVRQTPGKGLEWVSSITRGGTNTYYRDSVKGRFTISRDNNKNALYLQMNSLKPEDTAVYYCNADTYVPKDGGGWSPEYDIWGQGTLVTVSS
notes: as for B1
B6: VHH264 (VHH)
VHH: B5 VHH with N74D, N75A, A78T, E112D, L121Q
notes: as for B1
B7: VHH210 (VHH)
VHH: EVQLVESGGGLVQPGGSLRLSCAASGFTFSSSWMYWVRQVPGKGLEWLSDVDPGGGNTYYADSVKGRFTISRDNAKKVLYLQMNSLKPEDTAVYYCNADTYVPKDGGGWSPEYDIWGQGTQVTVSS
notes: as for B1
B8: VHH204 (VHH)
VHH: EVQLVESGGGLVQAGGSLRLSCVASGRTISSYAMTWVRHAPGKGLEWVSTISTDASNTYYADSVKGRFTVSRDNAKNTVYLQMNSLKPEDTALYYCARVRLDGWEYDYWGQGTQVTVSS
notes: From a naive llama VHH phage library (UCB Biopharma); cloned into pET21a(+); also called VH204; not shown: His6, N-terminal, kept
B9: VHH209 (VHH)
VHH: EVQLVESGGGLVQPGGSLRLSCAASGFTFSNYAMSWVRQAPGKGLEWVSSIESGSSRTIYRDSVKGRFTISRDNAKNTVYLQMNSLKPEDTAVYYCNADTYVPKDGSGWSPEYDVYGQGTQVTVSS
notes: as for B1
B10: VHH245 (VHH)
VHH: EVQLVESGGDLVQPGGSLRLSCSASGFTFDDYAMNWIRQAPGKGLEWVSSISWNGDSTYYAESMKGRFTISRDNAKNTLYLQMNSLQSEDTAVYYCNAQEYVGAHVYDYWGQGTQVTVSS
notes: as for B1
B11: VHH214 (VHH)
VHH: EVQLVESGGGLVQAGGSLRLSCAASGLLFDINDMGWYRQAPGKQREMVATIRSGGSTVYAEAVKGRFTISRDDAKHSVHLQMNNLKPEDSAVYYCHRTYNSYADWGQGTQVTVSS
notes: as for B1
B12: VHH201 (VHH)
VHH: EVQLVESGGGLVQAGESLTLSCAASGNSFDDYAVGWFRQAPGKEREGVGCINCETGVTTYYADSVKGRFTIHRDNAKNTVYLQMNSLKLEDTATYYCAADRWGTRLVAATYDYWGQGTQVTVSS
notes: as for B1
B13: VHH228 (VHH)
VHH: B12 VHH with E1Q, A14P, E16G, A24V, N27F, S28R, V34I
notes: as for B1
B14: VHH235 (VHH)
VHH: EVQLVESGGGLVQPGGSLRLSCAASGFNFGNSAMSWFRQAPGKGLEWVSSINSGGGGSVYRASVKGRFTISRDDAKNTLFLQMNSLKPEDTAVYYCNADTYVPKDGGGWSPEYDIWGQGTLVTVSS
notes: as for B1
B15: VHH234 (VHH)
VHH: EVQLVESGGGLVQPGGSLRLSCAASGFTFSSYAMNWVRQAPGKGLEWVSAINSGGGTTDYADSVKGRFTISRDNAKNTLYLQMNSLKPEDTAVYYCARGKLGNGLEWGQGTQVTVSS
notes: as for B1

Key:
[1] = target: T1, human Interleukin-13 (IL-13) (1-113) (Homo sapiens); experiment: BLI; Octet QKe; N-terminally His-tagged VHH loaded on Ni-NTA biosensors (100 nM), titrated with untagged IL-13; 300 s association, 300 s dissociation; 25°C; HBS-EP+ (10 mM HEPES pH 7.4, 150 mM NaCl, 3 mM EDTA, 0.005% Tween-20); steady-state curves, one-site binding model; conditions: both partners purified
T1 construct: source: 15N or 15N/13C labelled for NMR

[2] = target: T1, human Interleukin-13 (IL-13) (1-113); experiment: cell-based or functional assay

T1 sequence (chain, as listed by the source): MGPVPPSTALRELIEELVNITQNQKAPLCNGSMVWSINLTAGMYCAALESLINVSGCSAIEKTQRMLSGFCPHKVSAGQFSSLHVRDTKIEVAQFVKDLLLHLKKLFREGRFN

| Binder | Kd [1] [µM] | IC50 of inhibition of IL-13 signalling (STAT6/SEAP reporter, HEK-Blue IL-4/IL-13 cells); blocks IL-13 signalling through IL-13Rα1 and IL-4Rα [2] [µM] |
| --- | --- | --- |
| B1 | 5.5 | 63.5 |
| B2 | 0.4 | 34.3 |
| B3 | 0.2 | 1.7 |
| B4 | 0.2 | 11.4 |
| B5 | 2.2 | 6.9 |
| B6 | 3.9 | 14.5 |
| B7 | 0.04 | 0.2 |
| B8 | 2.6 | 26.2 |
| B9 | 2.2 | 67.8 |
| B10 | 0.2 | 3.7 |
| B11 | 4.8 | 154 |
| B12 | 0.9 | 37.7 |
| B13 | 0.9 | 56 |
| B14 | 3.6 | 74.3 |
| B15 | 4.1 | 49.6 |
